From article PMC2835750, “A Direct Interaction with NEDD1 Regulates γ-Tubulin Recruitment to the Centrosome” (PLoS ONE, 2010)
Residue numbers refer to the chain shown, from its start. Numbers in names are those of the source.

B1: NEDD1 CTD L642Q, GST removed (domain or fragment, human, UniProt Q8NHV4 572-660, looked up)
chain: ADSIGNNRQNAPLTSIQIRFIQNMIQETLDDFREACHRDIVNLQVEMIKQFHMQLNEMHSLLERYSVNEGQVAEIERLREENKRLRAHF
notes: source: E. coli BL21 star (DE3), purified (glutathione resin, thrombin, SEC)
B2: NEDD1 CTD L642Q/L649Q/L656Q (3xLQ), GST removed (domain or fragment, human, UniProt Q8NHV4 572-660, looked up)
chain: B1 chain with L78Q, L85Q
notes: also called triple 3×LQ; triple 3xLQ; source: E. coli BL21 star (DE3), purified (glutathione resin, thrombin, SEC)
B3: NEDD1 CTD Y636A/S637A, GST removed (domain or fragment, human, UniProt Q8NHV4 572-660, looked up)
chain: B1 chain with Y65A, S66A, Q71L
notes: also called YS (Y636A/S637A) mutant NEDD1; source: E. coli BL21 star (DE3), purified (glutathione resin, thrombin, SEC)
B4: NEDD1 CTD (residues 572–660), GST removed (domain or fragment, human, UniProt Q8NHV4 572-660, looked up)
chain: B1 chain with Q71L
notes: calculated mass 10.5 kDa; also called NEDD1 CTD WT; purified CTD; source: E. coli BL21 star (DE3), purified (glutathione resin, thrombin, SEC)
B5: NEDD1 fragment (residues 549–660) (domain or fragment, human, UniProt Q8NHV4 549-660, looked up)
chain: STPNPKIASSVTAGVASSLSEKIADSIGNNRQNAPLTSIQIRFIQNMIQETLDDFREACHRDIVNLQVEMIKQFHMQLNEMHSLLERYSVNEGLVAEIERLREENKRLRAHF
notes: NEDD1, human, residues 549-660; predicted mass 12.8 kDa; also called additional fragment of NEDD1 that included residues 549–660

Tests used:
[1] = target: the molecule itself; test: SEC-MALS; Superdex 200 HR 10/30, 50 mM NaP, 300 mM NaCl, 1 mM DTT, pH 8.0; oligomeric state
[2] = target: the molecule itself; test: SEC-MALS; data not shown; single peak not affected by dilution; oligomeric state

| Protein | stoichiometry N [1] | stoichiometry N [2] |
| --- | --- | --- |
| B1 | 4 |  |
| B2 | 4 |  |
| B3 | 4 |  |
| B4 | 4 |  |
| B5 |  | 4 |
